From patent publication US20100003264A1, “Reduction of Ophthalmalogic Neovascularization” (WASHINGTON UNIVERSITY, priority 2005, published 2010)
Entries after “also recorded” stand apart in the source; their conditions may differ.

Test system: choroidal neovascularization
Assay: laser-induced choroidal neovascularization in mice, volume of the neovascular complex
Assay type: in vivo
Settings: IL-10 knockout mice, IL-10 intravitreally on day of laser or three days after laser
Procedure: Volume of the neovascular complex was examined in IL-10 knockout mice. Knockout mice were purchased commercially (NCI, Frederick, Md.). All work was carried out per the ARVO guidelines for animal use in research. Rupture of Bruch's membrane with laser was used to initiate chorioretinal neovascularization in 5-7 week old mice as described in Nambu et al. ((2003) Invest Ophthalmol Vis Sci 44: 3650). Seven days after laser, the mice were anesthetized and perfused intraventricularly with fluorescein-labeled dextran. The mice were euthanized with CO2 inhalation and the eyes harvested for tissue processing. A dissecting microscope was used to remove the cornea and lens and gently separate the retina from the underlying choroid and sclera. Microscissors were used to make four radial incisions in the sclerochoroidal ‘eyecup’ in order to prepare choroidal flat mounts on glass slides. The tissues were incubated in 4% paraformaldehyde for 45 minutes and washed three times with 3% bovine serum albumin. […] The choroidal flat mounts were analyzed for presence of CNV by confocal microscopy. Extent of choroidal neovascularization was quantified by Metamorph™ imaging software. […]
Macrophages were used to proactively treat the formation of blood vessels in the eye. […] Choroidal neovascularization was analyzed on day 7. […]

B1: IL-10: cytokine produced by activated macrophages and some helper T cells; injected exogenously into eyes of IL-10 knockout mice (protein, UniProt P18893 19-178, looked up)
Interleukin-10: SRGQYSREDNNCTHFPVGQSHMLLELRTAFSQVKTFFQTKDQLDNILLTDSLMQDFKGYLGCQALSEMIQFYLVEVMPQAEKHGPEIKEHLNSLGEKLKTLRMRLRRCHRFLPCENKSKAVEQVKSDFNKLQDQGVYKAMNEFDIFINCIEAYMMIKMKS
Q: For B1, which “choroidal neovascularization (volume of the neovascular complex)” value is on record?
A: reversed the inhibition choroidal neovascularization; also recorded: increased new vessel formation

Q: And the “choroidal neovascularization (volume of the neovascular complex)” value (listed as Exogenous IL-10)?
A: reversed the inhibition choroidal neovascularization
